{
  "source": "patent US5488099",
  "about": "“Multifunctional chimeric neurotrophic factors” (dated 1996)",
  "key": {"[1]": {"biological_target": "TrkB of BDNF-responsive neurons from embryonic chick nodose ganglia (chick)", "sequence (Q91987 whole entry)": "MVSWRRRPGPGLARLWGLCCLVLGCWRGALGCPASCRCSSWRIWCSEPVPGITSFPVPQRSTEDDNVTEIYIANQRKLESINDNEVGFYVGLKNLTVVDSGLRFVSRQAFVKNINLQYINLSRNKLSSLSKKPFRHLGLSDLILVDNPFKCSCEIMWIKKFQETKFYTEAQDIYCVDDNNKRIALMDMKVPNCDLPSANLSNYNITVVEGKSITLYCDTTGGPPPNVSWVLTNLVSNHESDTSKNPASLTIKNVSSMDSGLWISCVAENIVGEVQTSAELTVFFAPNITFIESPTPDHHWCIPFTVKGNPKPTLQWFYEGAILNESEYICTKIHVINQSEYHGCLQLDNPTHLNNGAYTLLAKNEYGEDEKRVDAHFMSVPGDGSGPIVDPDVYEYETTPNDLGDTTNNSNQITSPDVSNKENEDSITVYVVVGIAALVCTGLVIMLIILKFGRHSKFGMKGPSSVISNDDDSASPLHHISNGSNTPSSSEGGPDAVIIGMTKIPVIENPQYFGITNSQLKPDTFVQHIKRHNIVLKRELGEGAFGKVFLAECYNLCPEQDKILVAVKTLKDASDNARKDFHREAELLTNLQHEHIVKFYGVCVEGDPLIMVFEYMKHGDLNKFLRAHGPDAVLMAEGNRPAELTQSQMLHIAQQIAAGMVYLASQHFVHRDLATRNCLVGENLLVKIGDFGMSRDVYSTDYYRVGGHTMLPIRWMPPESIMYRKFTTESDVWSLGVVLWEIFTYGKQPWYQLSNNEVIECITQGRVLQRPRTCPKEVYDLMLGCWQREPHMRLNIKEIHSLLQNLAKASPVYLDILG"}, "TrkB [2]": {"biological_target": "T1, TrkB (Rattus norvegicus (Rat), UniProt Q63604)", "test": "competition with 125I-BDNF on rtrkB-3T3 cells, COS conditioned medium, relative binding from IC50", "experimental": "(§1) Purified mouse NGF and BDNF were labeled with ^125I by the lactoperoxidase method to an average specific activity of 1×10^8 cpm/μg. For the labeling of BDNF, the modifications described by Rodriguez-Tebar et al. ([Rodriguez-Tebar, 1992]) were used. NIH3T3 fibroblasts expressing TrkA, TrkB or TrkC were used at 2 to 1–×10^6 cells/ml. Steady state binding was measured in competition assays performed at 4° C. using 1.5×10^-9M ^125I-BDNF and serial dilutions of conditioned media containing equivalent amounts of wt or mutated NGF protein. All components were added at the same time and the cells were collected by centrifugation after equilibrium was reached (90–120 minutes incubation). Cell pellets were then counted in a gamma counter. […] Nonspecific binding was measured in a parallel incubation to which 300 to 1000-fold molar excess of unlabelled purified factor was added. All results were corrected for this nonspecific binding, which was less than 10% (for NGF) or 30% (for BDNF) of total binding. The concentration of each chimeric, mutant and wild type molecule that gave 50% binding (IC$50$) was determined, and relative binding was calculated using the relationship:(mutant IC$50$/wild type IC$50$)X 100."}, "TrkB [3]": {"biological_target": "T1, TrkB", "test": "competition with 125I-BDNF on rtrkB-3T3 cells", "experimental": "as §1"}, "[4]": {"biological_target": "TrkA of NGF-responsive neurons from embryonic chick sympathetic ganglia (chick)"}, "TrkA [5]": {"biological_target": "T2, TrkA (Rattus norvegicus (Rat), UniProt P35739)", "test": "competition with 125I-NGF on rtrkA-3T3 cells, COS conditioned medium, relative binding from IC50", "experimental": "(§2) FIG. 2A–D. TrkA receptor binding, receptor phosphorylation and biological activity of wild-type (wt) and chimeric molecules (see SEQ. ID. NOS. 1 and 2 for all chimeric constructions). […] Each point represents the mean of triplicate determinations. Standard deviation was at or generally below ±10%. (B) and (C) Tyrosine phosphorylation of TrkA receptors stimulated by wt NGF, wt BDNF and chimeric molecules. rtrkA-3T3 cells were treated with 100 ng/ml of the indicated recombinant proteins and assayed for tyrosine phosphorylation. Media from mock-transfected COS cells was used as negative control (CONTROL). Arrowhead indicates the migration of phosphorylated TrkA (p140^trk). The faster migrating band correspond to constituitively phosphorylated p140^trk precursors ([Kaplan, 1991]). (D) Serial dilutions of transfected COS cell conditioned medium containing equal amounts of wt and chimeric factors were assayed for their ability to stimulate neurite outgrowth from E8 chick sympathetic ganglia. Data from three determinations varied by ±20% of the average values reported here. Key symbols as in (A).\nPurified mouse NGF and BDNF were labeled with ^125I by the lactoperoxidase method to an average specific activity of 1×10^8 cpm/μg. For the labeling of BDNF, the modifications described by Rodriguez-Tebar et al. ([Rodriguez-Tebar, 1992]) were used. NIH3T3 fibroblasts expressing TrkA, TrkB or TrkC were used at 2 to 1–×10^6 cells/ml. […] All components were added at the same time and the cells were collected by centrifugation after equilibrium was reached (90–120 minutes incubation). Cell pellets were then counted in a gamma counter."}, "TrkA [6]": {"biological_target": "T2, TrkA", "test": "competition with 125I-NGF on rtrkA-3T3 cells", "experimental": "as §1, with “Steady state binding was measured in competition assays performed at 4° C. using 1.5×10^-9M ^125I-BDNF and serial dilutions of conditioned media containing equivalent amounts of wt or mutated NGF protein.” left out\nFigure 3A: FIG. 3A&B. NGF variable regions I, IV and V partially restore TrkA binding and biological activity of the NH_2+I+III+IV+V chimeric molecule (see SEQ. ID. NOS. 1 and 2 for all chimera construction). […] Each point represents the mean of triplicate determinations."}, "[7]": {"biological_target": "TrkB (Rattus norvegicus (Rat)) (UniProt Q63604)"}, "TrkA [8]": {"biological_target": "T2, TrkA", "test": "competition with 125I-NGF on rtrkA-3T3 cells", "experimental": "as §2\nPurified mouse NGF and BDNF were labeled with ^125I by the lactoperoxidase method to an average specific activity of 1×10^8 cpm/μg. For the labeling of BDNF, the modifications described by Rodriguez-Tebar et al. ([Rodriguez-Tebar, 1992]) were used. […] Cell pellets were then counted in a gamma counter.", "remark": "listed apart in the source"}},
  "data": [
    {"binder": "wild-type rat nerve growth factor (ligand) SSTHPVFHMGEFSVCDSVSVWVGDKTTATDIKGKEVTVLGEVNINNSVFKQYFFETKCRAPNPVESGCRGIDSKHWSNYCTTTHTFVKALTTDDKQAAWRFIRIDTACVCVLSRKAARRG", "values": [
      {"measurement": "Biological Activity % of wild type (maximal cell survival of dissociated embryonic nodose neurons) (% of wild type)", "setting": "[1]", "value": "< 5"},
      {"measurement": "Receptor Binding % of wild type", "setting": "TrkB [2]", "value": "< 0.2 % of wild type"},
      {"measurement": "binding result", "setting": "TrkB [3]", "value": "no binding (tested: <0,2 % of wild type)"},
      {"measurement": "Biological Activity % of wild type (neurite outgrowth from explants of embryonic sympathetic ganglia) (% of wild type)", "setting": "[4]", "value": 100},
      {"measurement": "Receptor Binding % of wild type", "setting": "TrkA [5]", "value": "100 % of wild type"}
    ]},
    {"binder": "NGF mutant I31A (ligand) SSTHPVFHMGEFSVCDSVSVWVGDKTTATDAKGKEVTVLGEVNINNSVFKQYFFETKCRAPNPVESGCRGIDSKHWSNYCTTTHTFVKALTTDDKQAAWRFIRIDTACVCVLSRKAARRG", "values": [
      {"measurement": "fold reduction in receptor binding against wt NGF", "setting": "TrkA [6]", "value": 4, "unit": "fold"},
      {"measurement": "Biological Activity % of wild type (neurite outgrowth from explants of embryonic sympathetic ganglia) (% of wild type)", "setting": "[4]", "value": 25},
      {"measurement": "Receptor Binding % of wild type", "setting": "TrkA [5]", "value": "20 % of wild type"}
    ]},
    {"binder": "wild-type brain-derived neurotrophic factor (ligand) HSDPARRGELSVCDSISEWVTAADKKTAVDMSGGTVTVLEKVPVSKGQLKQYFYETKCNPMGYTKEGCRGIDKRHWSNQCRTTQSYVRALTMDSKKRIGWRFIRIDTSCVCTLTIKRGR", "values": [
      {"measurement": "Biological Activity % of wild type (maximal cell survival of dissociated embryonic nodose neurons) (% of wild type)", "setting": "[1]", "value": 100},
      {"measurement": "Receptor Binding % of wild type", "setting": "TrkB [2]", "value": "100 % of wild type"},
      {"measurement": "EC50 of TrkB tyrosine phosphorylation", "setting": "[7]", "value": 5, "unit": "ng/mL"},
      {"measurement": "binding result", "setting": "TrkA [8]", "value": "no binding (tested: <0,2 % of wild type)"},
      {"measurement": "Biological Activity % of wild type (neurite outgrowth from explants of embryonic sympathetic ganglia) (% of wild type)", "setting": "[4]", "value": "< 0.2"},
      {"measurement": "Receptor Binding % of wild type", "setting": "TrkA [5]", "value": "< 0.2 % of wild type"}
    ]}
  ]
}
